Data published in patent publication US9624482B2, “Thermophilic cellobiohydrolase” (Sandia Corporation, priority 2009, dated 2017).
“Also recorded” adds a separate entry of the source.

Tests used:
GH5 = GH5 (Caldicellulosiruptor saccharolyticus, UniProt A4XIF7); experiment: Product inhibition by cellobiose of pNPC hydrolysis; type: biochemical; conditions: 5 mM pNPC, optimal condition; read-out: IC50 of cellobiose on CBH activity
Procedure: (§1) To examine the catalytic activity of GH5 in detail, the hydrolysis of nitrophenol from 4-nitrophenyl-β-D-cellobioside (pNPC) and 4-nitrophenyl-β-D-glucopyranoside (pNPG) are measured. Under the optimum reaction condition that is previously found (80° C. and pH 5.5), pNPC was hydrolyzed by both CBM3-GH5 and GH5. […] The product inhibition by cellobiose is examined by adding unlabeled cellobiose into reaction mixtures containing 5 mM of pNPC. The IC50 inhibition constant for cellobiose on the catalytic activity of GH5 is found at c.a. 30 mM. The kinetics of pNPC hydrolysis by CBM3-GH5 and GH5 are compared to see whether the CBM3 domain can influence the catalytic activity of the GH5 domain on a soluble substrate.
(§2) GH5 and CBM3-GH5 (constructs C and E, respectively) are tested to determine the influence of product and ionic strength on CBH activity.

[1] = Hydrolysis of pNPC, kinetics by Eadie-Hofstee plots; type: biochemical; conditions: 80° C. and pH 5.5
Procedure: as §1

[2] = Hydrolysis of pNPG (β-glucosidase activity); type: biochemical; conditions: 80° C. and pH 5.5, up to one hour
Procedure: as §1

[3] = Influence of ionic strength (NaCl) on CBH activity; type: biochemical; conditions: 2.3 M NaCl
Procedure: as §2

[4] = Effect of IL concentration on CBH activity, CMC substrate, DNS; type: biochemical; conditions: EMIM acetate
Procedure: GH5 and CBM3-GH5 (constructs C and E, respectively) are tested to determine the effect of IL concentration on the CBH activity of GH5. Carboxymethyl cellulose (CMC) is used as the substrate for the enzymatic reaction, and the amount of released products containing reducing ends is measured by DNS. The CBH activity remains fairly highly from 0% to more than 20% EMIM acetate. From 25% EMIM acetate the CBH activity starts to decrease and the CBH activity diminished at about 60% EMIM acetate.

[5] = Enzyme digestion of solid substrates, products by HPAEC; type: biochemical; conditions: 30 mg substrate, 10 μg protein, 80° C., pH 5.5, 17 hours
Procedure: The effect of CBM3 on the cellobiohydrolase activity on solid substrates by GH5 is tested on Avicel and corn stover. These solid substrates are pretreated with the ionic liquid 1-ethyl-3-methylmidazolium acetate ([C2mim][OAc]). […] Enzyme digestion is performed by mixing 30 mg of substrate and 10 μg of protein in 0.5 mL volume and incubating at 80° C. and pH 5.5 for 17 hours. GH5 and CBM3-GH5 are able to produce more cellobiose and glucose from pre-treated Avicel than untreated Avicel.

[6] = CMCase activity of constructs; type: biochemical
Description: (§3) CBH is a modular cellulolytic gene from a hyperthermophilic and anaerobic bacterium Caldicellulosiruptor saccharolyticus (C. Sac), which contains the glycoside hydrolase family 10 (GH10), carbohydrate binding module family 3 (CBM3), and glycoside hydrolase family 5 (GH5) domains in a single open reading frame (ORF). We have expressed, purified, and characterized the function of the recombinant GH5 with and without CBM3 domain. The nucleotide sequence of the ORF is codon-optimized and then synthesized for protein expression in E. coli. The translated products contain c-terminal V5 epitope and His (×6) tags from the pDEST42 vector sequence. The recombinant proteins CBM3-GH5 and GH5 are expressed in BL21(DE3)Star E. coli and purified by affinity (HisTrap FF) and ion-exchange (HiTrap Q) chromatography methods. The average yields are 4 mg and 3 mg per liter, respectively.

[7] = CBH (cellobiohydrolase or exoglucanase) activity of constructs; type: biochemical
Description: as §3

[8] = substrate: O=[N+]([O-])c1ccc(O[C@@H]2O[C@H](CO)[C@@H](O[C@@H]3O[C@H](CO)[C@@H](O)[C@H](O)[C@H]3O)[C@H](O)[C@H]2O)cc1; experiment: hydrolysis kinetics of 4-nitrophenyl-β-D-cellobioside (pNPC) by CBM3-GH5 (Eadie-Hofstee plots); type: biochemical, Caldicellulosiruptor saccharolyticus; conditions: other: pNPC, 80° C., pH 5.5, Eadie-Hofstee plot
Description: as §3, §1

[9] = Enzymatic activity on CMC under different pH and temperature, DNS assay; type: biochemical
Procedure: To determine the optimum conditions for the enzymatic activity of GH5 on CMC under different pH and temperature ranges was measured by DNS assay. The maximum activity is observed at 80° C. and at pH between 4.7 and 5.5; the optimum conditions of the GH5 activity on CMC is at a higher temperature and at a lower pH than the optimum growth conditions of C. sac (70° C., at neutral pH). In addition, Csac GH5 is also active on 4-nitrophenyl β-D-cellobioside, but not active on 4-nitrophenyl β-D-glucopyranoside (up to 1 hr incubation). Therefore, GH5 is a cellobiohydrolase/exoglucanase that produces cellobiose.

[10] = substrate: O=[N+]([O-])c1ccc(O[C@@H]2O[C@H](CO)[C@@H](O[C@@H]3O[C@H](CO)[C@@H](O)[C@H](O)[C@H]3O)[C@H](O)[C@H]2O)cc1; experiment: hydrolysis kinetics of 4-nitrophenyl-β-D-cellobioside (pNPC) by GH5 (Eadie-Hofstee plots); type: biochemical, Caldicellulosiruptor saccharolyticus
Description: as §3, §1

[11] = other: 80° C., 50 mM MES, pH 5.5 (general description of the enzyme)
[12] = other: pNPC, 80° C., pH 5.5, Eadie-Hofstee plot

Chain of GH5 (A4XIF7 entry or part of it): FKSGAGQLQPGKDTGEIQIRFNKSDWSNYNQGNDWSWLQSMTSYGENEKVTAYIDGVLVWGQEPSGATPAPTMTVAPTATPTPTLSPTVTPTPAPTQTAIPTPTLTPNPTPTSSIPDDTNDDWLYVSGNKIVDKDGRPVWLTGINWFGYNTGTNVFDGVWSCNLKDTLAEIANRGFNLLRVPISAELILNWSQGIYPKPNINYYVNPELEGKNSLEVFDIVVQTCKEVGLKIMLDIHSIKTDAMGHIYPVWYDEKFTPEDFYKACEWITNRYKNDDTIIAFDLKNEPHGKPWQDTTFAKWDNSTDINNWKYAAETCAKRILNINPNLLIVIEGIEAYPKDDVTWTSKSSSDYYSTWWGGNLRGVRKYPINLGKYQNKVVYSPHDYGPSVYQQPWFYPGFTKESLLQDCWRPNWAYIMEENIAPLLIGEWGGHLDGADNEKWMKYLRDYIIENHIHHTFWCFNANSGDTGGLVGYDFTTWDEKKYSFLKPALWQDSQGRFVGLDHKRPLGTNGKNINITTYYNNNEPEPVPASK

Row | Molecule | IC50 (GH5) | Activity on pNPC [1] | Activity on pNPG [2] | Residual CBH activity [3] | IL concentration at which CBH activity diminished [4] | IL concentration from which CBH activity starts to decrease [4] | Sugar released from solid substrates [5] | CMCase activity [6] | CBH activity (cellobiohydrolase or exoglucanase) [7] | Km [8] | Vmax [8] | kcat [8] | Temperature of maximum (optimal) activity [9] | pH of maximum (optimal) activity [9] | IL concentration up to which the enzyme is active/tolerant [4] | Km [10, 11] | Vmax [10, 11] | Km [10, 12] | Vmax [10, 12] | kcat [10, 12]
1 | O=C[C@H](O)[C@@H](O)[C@H](O[C@@H]1O[C@H](CO)[C@@H](O)[C@H](O)[C@H]1O)[C@H](O)CO [cellobiose] | ~30 mM | – | – | – | – | – | – | – | – | – | – | – | – | – | – | – | – | – | – | –
2 | Caldicellulosiruptor saccharolyticus (Csac) CBM3-GH5 cellobiohydrolase, construct E (CsacF7-6), amino acids 374-1039 of Csac CBH, SEQ ID NO:4 … (protein, C-terminal V5 and His6 tags (pDEST42); E. coli BL21(DE3) Star; purified) MGVTTSSPTPTPTPTVTVTPTPTPTPTPTVTATPTPTPTPVSTPATGGQIKVLYANKETNSTTNTIRPWLKVVNSGSSSIDLSRVTIRYWYTVDGERAQSAVSDWAQIGASNVTFKFVKLSSSVSGADYYLEIGFKSGAGQLQPGKDTGEIQIRFNKSDWSNYNQGNDWSWLQSMTSYGENEKVTAYIDGVLVWGQEPSGATPAPTMTVAPTATPTPTLSPTVTPTPAPTQTAIPTPTLTPNPTPTSSIPDDTNDDWLYVSGNKIVDKDGRPVWLTGINWFGYNTGTNVFDGVWSCNLKDTLAEIANRGFNLLRVPISAELILNWSQGIYPKPNINYYVNPELEGKNSLEVFDIVVQTCKEVGLKIMLDIHSIKTDAMGHIYPVWYDEKFTPEDFYKACEWITNRYKNDDTIIAFDLKNEPHGKPWQDTTFAKWDNSTDINNWKYAAETCAKRILNINPNLLIVIEGLEAYPKDDVTWTSKSSSDYVSTWWGGNLRGVRKYPINLGKYQNKVVYSPHDYGPSVYQQPWFYPGFTKELLQDCWRPNWAYLMEENIAPLLIGEWGGHLDGADNEKWMKYLRDYIIENHIHHTFWCFNANSGDTGGLVGYDFTTWDEKKYSFLKPALWQDSQGRFVGLDHKRPLGTNGKNINITTYYNNNEPEPVPASK | – | hydrolyzed | not hydrolyzed | at least 80% | about 60% | 25% | cellobiose is the predominant sugar released; also recorded: produced more cellobiose than GH5 | Yes | Yes | 2200 µM | 0.71 µmol/min/mg | 0.767 s⁻¹ | – | – | – | – | – | – | – | –
3 | Caldicellulosiruptor saccharolyticus (Csac) GH5 cellobiohydrolase domain, construct C (CsacF7-4), amino acids 507-1039 of Csac CBH, SEQ ID NO:3 … (protein, C-terminal V5 and His6 tags (pDEST42); E. coli BL21(DE3) Star; purified) MFKSGAGQLQPGKDTGEIQIRFNKSDWSNYNQGNDWSWLQSMTSYGENEKVTAYIDGVLVWGQEPSGATPAPTMTVAPTATPTPTLSPTVTPTPAPTQTAIPTPTLTPNPTPTSSIPDDTNDDWLYVSGNKIVDKDGRPVWLTGINWFGYNTGTNVFDGVWSCNLKDTLAEIANRGFNLLRVPISAELILNWSQGIYPKPNINYYVNPELEGKNSLEVFDIVVQTCKEVGLKIMLDIHSIKTDAMGHIYPVWYDEKFTPEDFYKACEWITNRYKNDDTIIAFDLKNEPHGKPWQDTTFAKWDNSTDINNWKYAAETCAKRILNINPNLLIVIEGLEAYPKDDVTWTSKSSSDYYSTWWGGNLRGVRKYPINLGKYQNKVVYSPHDYGPSVYQQPWFYPGFTKESLLQDCWRPNWAYLMEENIAPLLIGEWGGHLDGADNEKWMKYLRDYIIENHIHHTFWCFNANSGDTGGLVGYDFTTWDEKKYSFLKPALWQDSQGRFVGLDHKRPLGTNGKNINITTYYNNNEPEPVPASK | – | active; also recorded: hydrolyzed | not active; also recorded: not hydrolyzed | – | about 60% | 25% | can produce both cellobiose and glucose; also recorded: cellobiose is the predominant sugar released | Yes | Yes | – | – | – | 80 °C | 4.7-5.5 | up to 50% | 2200 µM | 0.71 µmol/min/mg | 2400 µM | 0.62 µmol/min/mg | 0.817 s⁻¹
4 | CBH protein: Protein encoded by the YP_001179883 gene of Caldicellulosiruptor saccharolyticus, domains GH10, CBM3, GH5 (SEQ ID NO:2) (protein, listed as Caldicellulosiruptor saccharolyticus) MKRNLFRIVSRVVLIAFIASISLVGAMSYFPVETQAAPDWSIPSLCESYKDDFMIGVAIPARCLSNDTDKRMVLKHFNSITAENEMKPESLLAGQTSTGLSYRFSTADAFVDFASTNKIGIRGHTLVWHNQTPDWFFKDSNGQRLSKDALLARLKQYIYDVVGRYKGKVYAWDVVNEAIDENQPDSYRRSTWYEICGPEYIEKAFIWAHEADPNAKLFYNDYNTEISKKRDFIYNMVKNLKSKGIPIHGIGMQCHINVNWPSVSEIENSIKLFSSIPGIEIHITELDMSLYNYGSSENYSTPPQDLLQKQSQKYKEIFTMLKKYKNVVKSVTFWGLKDDYSWLRSFYGKNDWPLLFFEDYSAKPAYWAVLEASGVTTSSPTPTPTPTVTVTPTPTPTPTPTVTATPTPTPTPVSTPATGGQIKVLYANKETNSTTNTIRPWLKVVNSGSSSIDLSRVTIRYWYTVDGERAQSAVSDWAQIGASNVTFKFVKLSSSVSGADYYLEIGFKSGAGQLQPGKDTGEIQIRFNKSDWSNYNQGNDWSWLQSMTSYGENEKVTAYIDGVLVWGQEPSGATPAPTMTVAPTATPTPTLSPTVTPTPAPTQTAIPTPTLTPNPTPTSSIPDDTNDDWLYVSGNKIVDKDGRPVWLTGINWFGYNTGTNVFDGVWSCNLKDTLAEIANRGFNLLRVPISAELILNWSQGIYPKPNINYYVNPELEGKNSLEVFDIVVQTCKEVGLKIMLDIHSIKTDAMGHIYPVWYDEKFTPEDFYKACEWITNRYKNDDTIIAFDLKNEPHGKPWQDTTFAKWDNSTDINNWKYAAETCAKRILNINFNLLIVIEGIEAYPKDDVTWTSKSSSDYYSTWWGGNLRGVRKYPINLGKYQNKVVYSPHDYGPSVYQQPWFYPGFTKESLLQDCWRPNWAYIMEENIAPLLIGEWGGHLDGADNEKWMKYLRDYIIENHIHHTFWCFNANSGDTGGLVGYDFTTWDEKKYSFLKPALWQDSQGRFVGLDHKRPLGTNGKNINITTYYNNNEPEPVPASK | – | – | – | – | – | – | – | – | – | – | – | – | about 80 °C | – | up to 50% | – | – | – | – | –
